Target: T1, human TLR4 (Homo sapiens, UniProt O00206)
T1 construct: expressed in transfected cells; host or cells: HEK 293 (gift from Dr. Michael Fessler, NIEHS)
Test: IL-8 production by ELISA in HEK TLR4-MD2-CD14 cells
Format: cell-based
Conditions: HS pre-treated with heparanase
Procedure: HEK cell lines stably expressing CD14 and MD2 alone (HEK MD2-CD14), or co-expressed with human TLR2 (HEK TLR2-MD2-CD14) or human TLR4 (HEK TLR4-MD2-CD14) were transfected with a plasmid encoding firefly luciferase (F) under control of the NF-κB promoter along with a plasmid expressing Renilla luciferase (R) under control of the thymidine kinase promoter as a transfection control. Cell lines were cultured for 6 hours with media alone, LPS (100 ng/mL), HS (100 μg/mL), or Pam3CSK4 (2 μg/mL). […] FIG. 5B is a graph showing results supernatants analyzed for IL-8 production by ELISA. […] Experiments were performed in triplicate or quadruplicate. Results are representative of two to three independent experiments.
HEK 293 cell lines co-expressing human CD14, MD2 and TLR4 or TLR2 were a kind gift from Dr. Michael Fessler (NIEHS, Research Triangle Park, N.C., USA). […]
Thus, to determine whether if TLR4 was sufficient for HS activity, the ability of HS to activate human epithelial kidney (HEK) cell lines stably transfected to express human TLR4 or human TLR2 in addition to the co-receptors CD14 and MD2 was tested. […] The ratio of luminescence produced by firefly luciferase to Renilla luciferase (F/R) was then measured in response to media alone, LPS, HS, and Pam3CSK4. The production of IL-8, which is downstream of NF-κB activation, by ELISA was also measured. […]

T1 sequence (O00206 24-839): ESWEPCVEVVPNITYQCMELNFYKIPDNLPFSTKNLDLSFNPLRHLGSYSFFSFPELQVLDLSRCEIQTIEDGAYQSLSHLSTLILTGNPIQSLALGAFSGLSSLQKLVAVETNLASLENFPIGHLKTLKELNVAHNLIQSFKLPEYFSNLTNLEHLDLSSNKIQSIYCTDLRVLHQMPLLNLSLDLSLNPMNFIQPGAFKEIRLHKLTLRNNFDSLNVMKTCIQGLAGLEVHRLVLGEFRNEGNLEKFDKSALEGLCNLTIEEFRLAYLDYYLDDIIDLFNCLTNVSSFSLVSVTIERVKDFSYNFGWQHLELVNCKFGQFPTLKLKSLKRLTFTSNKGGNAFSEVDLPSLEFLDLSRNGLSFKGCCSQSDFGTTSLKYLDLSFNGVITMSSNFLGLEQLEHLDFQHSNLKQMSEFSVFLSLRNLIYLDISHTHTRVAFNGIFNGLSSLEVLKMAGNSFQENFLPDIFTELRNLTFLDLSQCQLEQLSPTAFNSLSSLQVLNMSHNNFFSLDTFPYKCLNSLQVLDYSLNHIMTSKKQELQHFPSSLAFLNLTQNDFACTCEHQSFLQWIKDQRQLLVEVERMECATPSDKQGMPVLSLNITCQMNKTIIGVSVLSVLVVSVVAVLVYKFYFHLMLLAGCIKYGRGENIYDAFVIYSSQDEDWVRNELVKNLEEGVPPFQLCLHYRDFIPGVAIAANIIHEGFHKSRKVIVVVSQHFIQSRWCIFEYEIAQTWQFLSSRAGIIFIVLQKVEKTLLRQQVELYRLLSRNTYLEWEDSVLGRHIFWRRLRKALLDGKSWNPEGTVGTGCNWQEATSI
T1 sequence (Q9Y6Y9 17-160 partner limits assumed): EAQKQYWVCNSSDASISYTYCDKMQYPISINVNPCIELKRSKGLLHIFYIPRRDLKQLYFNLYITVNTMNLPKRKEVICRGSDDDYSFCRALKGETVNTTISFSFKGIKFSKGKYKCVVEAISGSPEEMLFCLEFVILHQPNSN

B1: Heparanase: heparinase III from Flavobacterium heparinum (Sigma), enzyme that degrades heparan sulfate (protein, UniProt Q59289 25-659, looked up)
Heparin-sulfate lyase: QSSSITRKDFDHINLEYSGLEKVNKAVAAGNYDDAAKALLAYYREKSKAREPDFSNAEKPADIRQPIDKVTREMADKALVHQFQPHKGYGYFDYGKDINWQMWPVKDNEVRWQLHRVKWWQAMALVYHATGDEKYAREWVYQYSDWARKNPLGLSQDNDKFVWRPLEVSDRVQSLPPTFSLFVNSPAFTPAFLMEFLNSYHQQADYLSTHYAEQGNHRLFEAQRNLFAGVSFPEFKDSPRWRQTGISVLNTEIKKQVYADGMQFELSPIYHVAAIDIFLKAYGSAKRVNLEKEFPQSYVQTVENMIMALISISLPDYNTPMFGDSWITDKNFRMAQFASWARVFPANQAIKYFATDGKQGKAPNFLSKALSNAGFYTFRSGWDKNATVMVLKASPPGEFHAQPDNGTFELFIKGRNFTPDAGVFVYSGDEAIMKLRNWYRQTRIHSTLTLDNQNMVITKARQNKWETGNNLDVLTYTNPSYPNLDHQRSVLFINKKYFLVIDRAIGEATGNLGVHWQLKEDSNPVFDKTKNRVYTTYRDGNNLMIQSLNADRTSLNEEEGKVSYVYNKELKRPAFVFEKPKKNAGTQNFVSIVYPYDGQKAPEISIRENKGNDFEKGKLNLTLTINGKQQLVLVP
Which “effect of pre-treatment on HS stimulation of IL-8 expression” value does the source give for B1 here?
The value was “significantly reduced”.

Reference: patent US20160109459A1, “Compositions And Methods For Heparan Sulfate As A Biomarker For Transplant Rejection” (Duke University, priority 2012, published 2016)
